System: Escherichia coli TOP10
Test: shrunken log2 fold change of peptide-encoding DNA abundance (4.5 h post-induction vs induction); higher = less antimicrobial activity (less host growth inhibition)
Conditions: time post-induction: 4.5 h; library: site-saturation at positions 5, 18, 19, 20
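Further: peptides expressed intracellularly from a pBAD plasmid library in pooled LB shake-flask culture, induced with 0.3% L-arabinose, DNA abundance read by NGS, three biological replicates, DESeq2 with apeglm shrinkage.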

Sequence	shrunken log2 fold change
RRIRMRPPRLPRPRPRPKMCPRP	0.0261
RRIRGRPPRLPRPRPRPSKLPRP	0.0492
RRIRVRPPRLPRPRPRPLMCPRP	-0.268
RRIRERPPRLPRPRPRPANYPRP	-0.0934
RRIRTRPPRLPRPRPRPKRMPRP	-0.157
RRIRHRPPRLPRPRPRPECQPRP	-0.0633
RRIRFRPPRLPRPRPRPTGQPRP	0.0488
RRIRWRPPRLPRPRPRPIHDPRP	-0.118
RRIRTRPPRLPRPRPRPYYAPRP	-0.489
RRIRHRPPRLPRPRPRPLMGPRP	0.11
RRIRWRPPRLPRPRPRPWLNPRP	-0.227
RRIRCRPPRLPRPRPRPQGTPRP	-0.35
RRIRGRPPRLPRPRPRPFVTPRP	0.0292
RRIRNRPPRLPRPRPRPLIGPRP	-0.0791
RRIRQRPPRLPRPRPRPNYTPRP	-0.207
RRIRGRPPRLPRPRPRPIVFPRP	0.194
RRIRLRPPRLPRPRPRPVNSPRP	0.1
RRIRVRPPRLPRPRPRPERGPRP	0.416
RRIRFRPPRLPRPRPRPTIFPRP	-0.274
RRIRFRPPRLPRPRPRPVAPPRP	0.243
RRIRMRPPRLPRPRPRPNFWPRP	0.294
RRIRERPPRLPRPRPRPEVCPRP	-0.0484
RRIRSRPPRLPRPRPRPPWMPRP	0.167
RRIRRRPPRLPRPRPRPPGKPRP	0.978
RRIRYRPPRLPRPRPRPLVGPRP	-0.457

Sequence	shrunken log2 fold change
RRIRRRPPRLPRPRPRPATQPRP	0.691
RRIRTRPPRLPRPRPRPHTFPRP	-0.431
RRIRERPPRLPRPRPRPWFNPRP	-0.599
RRIRPRPPRLPRPRPRPGMLPRP	-0.0338
RRIRMRPPRLPRPRPRPTNVPRP	-0.0668
RRIRCRPPRLPRPRPRPFAMPRP	-0.495
RRIRYRPPRLPRPRPRPALKPRP	0.0554
RRIRFRPPRLPRPRPRPHAEPRP	-0.00295
RRIRLRPPRLPRPRPRPWPRPRP	0.113
RRIRFRPPRLPRPRPRPADWPRP	0.36
RRIRDRPPRLPRPRPRPRINPRP	0.0252
RRIRDRPPRLPRPRPRPFSQPRP	-0.172
RRIRKRPPRLPRPRPRPSCYPRP	-0.0656
RRIRERPPRLPRPRPRPDHNPRP	-0.897
RRIRMRPPRLPRPRPRPTKFPRP	0.339
RRIRSRPPRLPRPRPRPIGTPRP	-0.25
RRIRHRPPRLPRPRPRPPKRPRP	-0.142
RRIRSRPPRLPRPRPRPCIIPRP	0.00867
RRIRPRPPRLPRPRPRPHAGPRP	1.77
RRIRKRPPRLPRPRPRPSGPPRP	0.0366
RRIRCRPPRLPRPRPRPVAMPRP	-0.125
RRIRLRPPRLPRPRPRPPHNPRP	0.504
RRIRYRPPRLPRPRPRPDDTPRP	-0.876
RRIRIRPPRLPRPRPRPHLVPRP	-0.573
RRIRNRPPRLPRPRPRPNGHPRP	-0.41

Sequence	shrunken log2 fold change
RRIRERPPRLPRPRPRPIGVPRP	0.0489
RRIRCRPPRLPRPRPRPCWIPRP	-0.464
RRIRIRPPRLPRPRPRPFPMPRP	-0.412
RRIRVRPPRLPRPRPRPQTTPRP	0.213
RRIRDRPPRLPRPRPRPCKCPRP	-0.147
RRIRYRPPRLPRPRPRPFNVPRP	0.0019
RRIRWRPPRLPRPRPRPPFCPRP	0.24
RRIRLRPPRLPRPRPRPPVHPRP	0.0348
RRIRGRPPRLPRPRPRPATCPRP	0.512
RRIRSRPPRLPRPRPRPFYDPRP	-0.254
RRIRQRPPRLPRPRPRPHCDPRP	0.0241
RRIRNRPPRLPRPRPRPAIPPRP	-0.202
RRIRERPPRLPRPRPRPALKPRP	0.4
RRIRERPPRLPRPRPRPWQGPRP	0.0776
RRIRKRPPRLPRPRPRPKIHPRP	-0.152
RRIRMRPPRLPRPRPRPPITPRP	-0.109
RRIRDRPPRLPRPRPRPLKRPRP	-0.0492
RRIRIRPPRLPRPRPRPMSSPRP	-0.215
RRIRGRPPRLPRPRPRPHSVPRP	-0.0536
RRIRLRPPRLPRPRPRPECTPRP	0.114
RRIRRRPPRLPRPRPRPSEEPRP	0.125
RRIRGRPPRLPRPRPRPEKMPRP	0.59
RRIRWRPPRLPRPRPRPWKHPRP	0.0264
RRIRRRPPRLPRPRPRPIAFPRP	-0.0124
RRIRQRPPRLPRPRPRPSNHPRP	-0.346

Sequence	shrunken log2 fold change
RRIRMRPPRLPRPRPRPEVNPRP	0.156
RRIRPRPPRLPRPRPRPLTVPRP	-0.126
RRIRWRPPRLPRPRPRPPLHPRP	0.417
RRIRYRPPRLPRPRPRPRKEPRP	0.00543
RRIRDRPPRLPRPRPRPGGMPRP	0.0874
RRIRPRPPRLPRPRPRPRMQPRP	1.48
RRIRDRPPRLPRPRPRPWQYPRP	-0.482
RRIRPRPPRLPRPRPRPVRWPRP	0.819
RRIRERPPRLPRPRPRPPGPPRP	0.478
RRIRVRPPRLPRPRPRPMFWPRP	0.285
RRIRDRPPRLPRPRPRPIGYPRP	-0.174
RRIRRRPPRLPRPRPRPCQMPRP	0.0273
RRIRLRPPRLPRPRPRPYWKPRP	-0.0713
RRIRHRPPRLPRPRPRPSPKPRP	-0.0976
RRIRVRPPRLPRPRPRPWIKPRP	0.0141
RRIRCRPPRLPRPRPRPFTRPRP	-0.291
RRIRARPPRLPRPRPRPHTSPRP	-0.218
RRIRARPPRLPRPRPRPDTHPRP	0.0877
RRIRARPPRLPRPRPRPRTPPRP	0.636
RRIRSRPPRLPRPRPRPPWEPRP	0.198
RRIRWRPPRLPRPRPRPAEDPRP	0.711
RRIRSRPPRLPRPRPRPTVDPRP	0.16
RRIRHRPPRLPRPRPRPWGNPRP	-0.0654
RRIRGRPPRLPRPRPRPMKNPRP	0.68
RRIRTRPPRLPRPRPRPSDAPRP	-0.174

Sequence	shrunken log2 fold change
RRIRTRPPRLPRPRPRPWPPPRP	0.154
RRIRYRPPRLPRPRPRPVFHPRP	-0.492
RRIRRRPPRLPRPRPRPGADPRP	0.725
RRIRSRPPRLPRPRPRPEMRPRP	0.84
RRIRFRPPRLPRPRPRPMHHPRP	-0.449
RRIRCRPPRLPRPRPRPNTNPRP	-0.66
RRIRRRPPRLPRPRPRPQPAPRP	0.387
RRIRCRPPRLPRPRPRPQNGPRP	0.0924
RRIRTRPPRLPRPRPRPKMGPRP	-0.0141
RRIRWRPPRLPRPRPRPYPTPRP	-0.281
RRIRTRPPRLPRPRPRPDATPRP	0.823
RRIRHRPPRLPRPRPRPHEYPRP	-0.293
RRIRSRPPRLPRPRPRPAGCPRP	0.459
RRIRVRPPRLPRPRPRPGTPPRP	-0.00585
RRIRDRPPRLPRPRPRPFYYPRP	-0.899
RRIRRRPPRLPRPRPRPKQTPRP	0.186
RRIRLRPPRLPRPRPRPWPDPRP	-0.148
RRIRRRPPRLPRPRPRPGFSPRP	0.131
RRIRMRPPRLPRPRPRPGMTPRP	1.47
RRIRQRPPRLPRPRPRPRRFPRP	0.222
RRIRTRPPRLPRPRPRPHMWPRP	-0.302
RRIRDRPPRLPRPRPRPYSDPRP	0.0396
RRIRHRPPRLPRPRPRPTRCPRP	-0.00896
RRIRMRPPRLPRPRPRPKTEPRP	0.155
RRIRHRPPRLPRPRPRPGGNPRP	0.00148

Sequence	shrunken log2 fold change
RRIRKRPPRLPRPRPRPVGDPRP	0.247
RRIRNRPPRLPRPRPRPQTIPRP	-0.194
RRIRERPPRLPRPRPRPYYSPRP	-0.0755
RRIRYRPPRLPRPRPRPQWAPRP	-0.00681
RRIRIRPPRLPRPRPRPYARPRP	-1.22
RRIRKRPPRLPRPRPRPSDSPRP	-0.132
RRIRCRPPRLPRPRPRPAEEPRP	-0.314
RRIRSRPPRLPRPRPRPIDQPRP	-0.174
RRIRARPPRLPRPRPRPCVIPRP	0.158
RRIRYRPPRLPRPRPRPRWSPRP	-0.225
RRIRKRPPRLPRPRPRPRAVPRP	0.849
RRIRRRPPRLPRPRPRPNGRPRP	-0.0152
RRIRGRPPRLPRPRPRPKVVPRP	0.12
RRIRHRPPRLPRPRPRPKFWPRP	0.00227
RRIRERPPRLPRPRPRPPWDPRP	-0.0062
RRIRWRPPRLPRPRPRPKIRPRP	0.00361
RRIRYRPPRLPRPRPRPELEPRP	0.0858
RRIRYRPPRLPRPRPRPSINPRP	-0.39
RRIRTRPPRLPRPRPRPNVDPRP	-0.625
RRIRVRPPRLPRPRPRPDWGPRP	0.184
RRIRSRPPRLPRPRPRPHCAPRP	-0.0311
RRIRNRPPRLPRPRPRPTGIPRP	0.0288
RRIRVRPPRLPRPRPRPDKNPRP	-0.12
RRIRTRPPRLPRPRPRPNRTPRP	-0.002
RRIRTRPPRLPRPRPRPDARPRP	0.0965

From the supplement of paper PMC9112550, “Optimization of the antimicrobial peptide Bac7 by deep mutational scanning” (BMC Biology, 2022)
